In patent publication US20240400677A1 (ELECTRA THERAPEUTICS, published 2024):
Residue numbers refer to the chain shown, from its start.

T1: cynomolgus monkey SIRPγ on CHO cells (cynomolgus monkey, UniProt Q9P1W8 29-386 (human entry))
T1 construct: also called Cyno SIRPγ CHO
T1 chain: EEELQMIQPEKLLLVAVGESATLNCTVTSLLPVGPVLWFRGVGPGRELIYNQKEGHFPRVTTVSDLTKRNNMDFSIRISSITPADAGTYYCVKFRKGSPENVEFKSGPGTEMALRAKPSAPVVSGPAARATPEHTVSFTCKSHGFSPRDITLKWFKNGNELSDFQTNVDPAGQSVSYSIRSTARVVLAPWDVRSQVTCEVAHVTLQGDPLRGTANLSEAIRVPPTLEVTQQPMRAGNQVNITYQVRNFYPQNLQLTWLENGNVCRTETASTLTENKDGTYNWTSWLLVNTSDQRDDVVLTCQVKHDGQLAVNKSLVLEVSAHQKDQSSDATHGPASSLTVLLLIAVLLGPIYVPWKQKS

T2: cynomolgus monkey SIRPγ-His monomer protein (cynomolgus monkey, UniProt Q9P1W8 29-359 (human entry), limits assumed)
T2 construct: also called Cyno SIRPγ; Cyno SIRPγ-His
T2 chain: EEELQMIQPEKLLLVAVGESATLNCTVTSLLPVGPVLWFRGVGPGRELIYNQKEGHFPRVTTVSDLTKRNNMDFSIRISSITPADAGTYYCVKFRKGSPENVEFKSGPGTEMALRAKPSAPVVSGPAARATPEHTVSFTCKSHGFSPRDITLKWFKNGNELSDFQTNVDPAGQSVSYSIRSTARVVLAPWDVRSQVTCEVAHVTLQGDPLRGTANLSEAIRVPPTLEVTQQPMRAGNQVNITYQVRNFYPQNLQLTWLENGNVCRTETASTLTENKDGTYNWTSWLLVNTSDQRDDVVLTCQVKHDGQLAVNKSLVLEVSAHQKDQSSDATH

T3: cynomolgus monkey SIRPα on CHO cells (cynomolgus monkey, UniProt A0A2K5VYQ9 31-507)
T3 construct: whole, on cells; also called Cyno SIRPα CHO
T3 sequence: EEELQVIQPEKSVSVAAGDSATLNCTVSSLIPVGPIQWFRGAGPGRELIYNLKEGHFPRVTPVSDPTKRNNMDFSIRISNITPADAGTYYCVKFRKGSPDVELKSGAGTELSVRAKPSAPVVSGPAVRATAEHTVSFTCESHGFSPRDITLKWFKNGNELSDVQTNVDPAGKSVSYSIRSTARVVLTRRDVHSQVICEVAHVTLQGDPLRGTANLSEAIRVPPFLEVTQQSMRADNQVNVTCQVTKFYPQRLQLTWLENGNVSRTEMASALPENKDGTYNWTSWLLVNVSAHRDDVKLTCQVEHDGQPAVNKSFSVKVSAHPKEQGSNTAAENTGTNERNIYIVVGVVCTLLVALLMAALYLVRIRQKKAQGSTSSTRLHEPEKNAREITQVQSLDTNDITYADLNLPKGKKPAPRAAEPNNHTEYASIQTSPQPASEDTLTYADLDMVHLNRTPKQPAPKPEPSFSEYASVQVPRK

B1: Antibody 18 (scFv, V domains shown)
VH: QVQLVQSGAEVKKPGASVKVSCKASGYTFTGYYMHWVRQAPGQGLEWMGWMNPNSGNTGYAQKFQGRVTMTRDTSTSTVYMELSSLRSEDTAVYYCARGSGYDAGVFDYWGQGTLVTVSS
VL: DIQMTQSPSSLSASVGDRVTITCRASQGIGNDLAWYQQKPGKAPKLLIYDAKDLHPGVPSRFSGSGSGTDFTLTISSLQPEDFATYYCQQSYSFPRTFGQGTRLEIK
notes: scFv in crude PPE, V5/myc-tagged
B2: Antibody 31 (scFv, V domains shown)
VH: QVQLVQSGAEVKKPGASVKVSCKASGGTFRSYAISWVRQAPGQGLEWMGWMNPNSGNTGYAQKFQGRVTMTRDTSTSTVYMELSSLRSEDTAVYYCARESVLKGGMDVWGQGTTVTVSS
VL: DIVMTQSPDSLAVSLGERATINCRSSQSLFHSSTNANNLAWYQQKPGQPPKLLIYWASTRESGVPDRFSGSGSGTDFTLTISSLQAEDVAVYYCQQYYITPLTFGQGTRLEIK
notes: as for B1
B3: Antibody 23 (scFv, V domains shown)
VH: QVQLVQSGAEVKKPGASVKVSCKASGGTFSNYDINWVRQAPGQGLEWMGWISAYNGNTNYAQKLQGRVTMTRDTSTSTVYMELSSLRSEDTAVYYCAAEAYGDYSLDPWGQGTLVTVSS
VL: DIQMTQSPSSLSASVGDRVTITCQASQGISSYLNWYQQKPGKAPKLLIYAASSLQNGVPSRFSGSGSGTDFTLTISSLQPEDFATYYCQQSYSTPITFGQGTRLEIK
notes: as for B1
B4: Antibody 30 (scFv, V domains shown)
VH: QVQLVQSGAEVKKPGASVKVSCKASGYTFTNFDINWVRQAPGQGLEWMGWISAYNGHTNYAQNLQGRVTMTRDTSTSTVYMELSSLRSEDTAVYYCAQEAAAGYFDYWGQGTLVTVSS
VL: B1 VL with G28D, G30R, K52S, D53N, H55E, P56T, S93G, F94T, R96Y, R103K
notes: as for B1
B5: Antibody 15 (scFv, V domains shown)
VH: QVQLVQSGAEVKKPGASVKVSCKASGYSFTSYGISWVRQAPGQGLEWMGWISPYNGNTNYAQKLQGRVTMTRDTSTSTVYMELSSLRSEDTAVYYCAREAYGDYGDYFDYWGQGTLVTVSS
VL: DIQMTQSPSSLSASVGDRVTITCRASQGVGDRSAWYQQKPGKAPKLLIYDASNLETGVPSRFSGSGSGTDFTLTISSLQPEDFATYYCQQADTFPYTFGQGTKLEIK
notes: as for B1
B6: Antibody 10 (scFv, V domains shown)
VH: QVQLVQSGAEVKKPGASVKVSCKASGGTFSNYDISWVRQAPGQGLEWMGMIDPSGGSTSYAQKFQGRVTMTRDTSTSTVYMELSSLRSEDTAVYYCARPYSSGWYYFDYWGQGTLVTVSS
VL: B3 VL with G28D, S30H, S31N, A50D, S53N, Q55E, N56T, S93N, I96P
notes: as for B1
B7: Antibody 25 (scFv, V domains shown)
VH: EVQLLESGGGLVQPGGSLRLSCAASGFTVGSWYMSWVRQAPGKGLEWVAHVSDDGSNEFYADSVKGRFTISRDNSKNTLYLQMNSLRAEDTAVYYCARSPGYCSSTSCYRYYGMDVWGQGTTVTVSS
VL: DIQMTQSPSSLSASVGDRVTITCRTSQSIGTYLNWYQQKPGKAPKLLIYDASNLPTGVPSRFSGSGSGTDFTLTISSLQPEDFATYYCQNYNSALFGPGTKVDIK
notes: as for B1
B8: Antibody 65 (antibody, V domains shown)
VH: QVQLVQSGAEVKKPGASVKVSCKASGYTFTSHDINWVRQAPGQGLEWMGWMNANNGNAGYAQKFQGRVTMTRDTSTSTVYMELSSLRSEDTAVYYCAKDLSPSSSWSTYYYYYGMDVWGQGTMVTVSS
VL: B3 VL with Q24R, G28S, S31N, Y32L, N34A, N56S, I96Y, R103K

target: T4, human SIRPγ on stably transfected CHO cells (human, UniProt Q9P1W8 29-387); assay: flow cytometry, myc-scFv PPE
T4 construct: also called Human SIRPγ CHO
T4 sequence (Q9P1W8 29-387 limits assumed): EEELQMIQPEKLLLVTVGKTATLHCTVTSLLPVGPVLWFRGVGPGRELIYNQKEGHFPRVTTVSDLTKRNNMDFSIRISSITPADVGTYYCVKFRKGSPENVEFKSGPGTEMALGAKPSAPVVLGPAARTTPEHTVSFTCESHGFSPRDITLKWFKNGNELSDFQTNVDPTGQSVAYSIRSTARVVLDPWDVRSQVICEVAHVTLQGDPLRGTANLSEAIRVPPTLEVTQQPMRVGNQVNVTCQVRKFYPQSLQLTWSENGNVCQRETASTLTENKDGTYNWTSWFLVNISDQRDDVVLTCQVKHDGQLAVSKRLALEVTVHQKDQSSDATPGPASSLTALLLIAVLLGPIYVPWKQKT
Outline: (§1)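 The CHO lines were stably transfected, with SIRPβ1 co-transfected with DAP12 where present. Titrated antibody was detected by labelled anti-human IgG and scored as MFI. The myc-scFv PPE was screened on these lines and on CHO-K1 parental cells, and fold change <2.0 was classed as non-binder.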

| MFI fold change over parental CHO [fold] | Binder |
| --- | --- |
| 25.2 | B1 |
| 18.1 | B2 |
| 21.6 | B3 |
| 5.94 | B4 |
| 17 | B5 |
| 38.3 | B6 |
| 19.5 | B7 |

Target: T1, cynomolgus monkey SIRPγ on CHO cells
Assay: flow cytometry, myc-scFv PPE
Outline: as §1

| MFI fold change over parental CHO [fold] | Binder |
| --- | --- |
| 16.2 | B1 |
| 21.3 | B2 |
| 16.5 | B3 |
| 3.76 | B4 |
| 3.71 | B5 |
| 23.1 | B6 |
| 10.3 | B7 |

Target: T2, cynomolgus monkey SIRPγ-His monomer …
Assay: BLI Octet, captured scFv PPE, cyno SIRP
Description: Unique binders were further tested for binding to human SIRPαV1, human SIRPαV2, and human SIRPβ1. Briefly, biotinylated anti-V5 was immobilized onto streptavidin biosensors. Each V5-tagged SIRPγ scFv antibody as crude PPE was captured by the anti-V5 antibody. SIRP-His monomer protein at 500 nM was exposed to the biosensor for binding to SIRP scFv. The biosensors were then exposed to wash buffer to measure off-rate kinetics. The resulting association and dissociation kinetics (kdis) was analyzed. […] Similarly, cross-reactivity to cynomolgus monkey SIRPγ, cynomolgus monkey SIRPα, and cynomolgus monkey SIRPβ1 were tested.

| binding result | Binder |
| --- | --- |
| binds | B1 |
| binds | B2 |
| binds | B3 |
| binds | B4 |
| binds | B5 |
| binds | B6 |
| binds | B7 |

target: T3, cynomolgus monkey SIRPα on CHO cells; assay: flow cytometry, CHO transfectants, anti-human IgG
Outline: as §1

| binding result | Binder |
| --- | --- |
| no binding (tested: about 20 µg/mL) | B8 |

target: T5, human SIRPβ1 on CHO cells (co-transfected with DAP12) (human, UniProt O00241 30-398); assay: flow cytometry, CHO transfectants, anti-human IgG
T5 construct: whole, on cells; co-transfected with DAP12; also called Human SIRPβ1 CHO
T5 sequence (O00241 30-398): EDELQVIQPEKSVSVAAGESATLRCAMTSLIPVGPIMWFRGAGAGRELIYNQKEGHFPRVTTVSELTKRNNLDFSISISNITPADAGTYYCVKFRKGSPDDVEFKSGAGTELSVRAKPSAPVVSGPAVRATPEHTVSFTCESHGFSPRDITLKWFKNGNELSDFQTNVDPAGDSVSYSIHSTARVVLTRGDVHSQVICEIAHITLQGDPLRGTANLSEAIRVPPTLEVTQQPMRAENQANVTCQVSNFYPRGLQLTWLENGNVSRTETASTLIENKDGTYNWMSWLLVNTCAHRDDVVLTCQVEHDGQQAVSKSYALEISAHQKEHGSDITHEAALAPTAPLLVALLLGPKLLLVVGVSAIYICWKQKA
Outline: as §1

| binding result | Binder |
| --- | --- |
| no binding (tested: about 20 µg/mL) | B8 |

target: T4, human SIRPγ on stably transfected CHO …; assay: flow cytometry, CHO transfectants, anti-human IgG
Outline: as §1

| EC50 (read off the curve) [mg/L] | Binder |
| --- | --- |
| ~0.5 | B8 |

target: T6, human SIRPγ-His monomer protein (human, UniProt Q9P1W8 29-360); assay: BLI Octet, V5-scFv PPE captured, SIRP-His 500 nM
T6 construct: also called hSIRPγ
T6 sequence (Q9P1W8 29-360 limits assumed): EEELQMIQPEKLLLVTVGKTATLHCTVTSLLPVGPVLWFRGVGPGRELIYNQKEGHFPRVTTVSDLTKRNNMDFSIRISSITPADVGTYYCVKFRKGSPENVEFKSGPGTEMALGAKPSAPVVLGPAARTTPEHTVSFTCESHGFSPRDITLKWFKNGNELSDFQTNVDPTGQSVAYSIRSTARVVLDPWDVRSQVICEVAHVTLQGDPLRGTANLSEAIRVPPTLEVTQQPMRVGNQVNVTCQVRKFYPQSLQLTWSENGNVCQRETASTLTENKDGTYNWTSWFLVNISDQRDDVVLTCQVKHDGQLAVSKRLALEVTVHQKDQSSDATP

| kdis [s⁻¹] | Binder |
| --- | --- |
| 0.001 to 0.01 | B1 |
| 0.001 to 0.01 | B2 |
| 0.001 to 0.01 | B3 |
| 0.001 to 0.01 | B4 |
| 0.001 to 0.01 | B5 |
| 0.001 to 0.01 | B6 |
| 0.001 to 0.01 | B7 |

target: T3, cynomolgus monkey SIRPα on CHO cells; assay: flow cytometry

| binding result | Binder |
| --- | --- |
| no binding (tested: fold change <2.0) | B1 |
| no binding (tested: fold change <2.0) | B2 |
| no binding (tested: fold change <2.0) | B3 |
| no binding (tested: fold change <2.0) | B4 |
| no binding (tested: fold change <2.0) | B5 |
| no binding (tested: fold change <2.0) | B6 |
| no binding (tested: fold change <2.0) | B7 |

target: T5, human SIRPβ1 on CHO cells …; assay: flow cytometry

| binding result | Binder |
| --- | --- |
| no binding (tested: fold change <2.0) | B1 |
| no binding (tested: fold change <2.0) | B2 |
| no binding (tested: fold change <2.0) | B3 |
| no binding (tested: fold change <2.0) | B4 |
| no binding (tested: fold change <2.0) | B5 |
| no binding (tested: fold change <2.0) | B6 |
| no binding (tested: fold change <2.0) | B7 |
